{
  "source": "patent US12129294B2",
  "about": "“Methods of treatment of diseases in which IL-13 activity is detrimental using anti-IL-13 antibodies” (AbbVie Inc., priority 2016, dated 2024)",
  "origin": "cited, not measured here",
  "test_system": "eosinophilic esophagitis (EoE)",
  "conditions": "QAX576 study, N = 17, cited from earlier work",
  "data": [
    {"molecule": "QAX576: anti-IL-13 antibody dectrekumab (QAX-576), comparator study in Table 6 (antibody, chains of the INN, looked up, V domains shown) VH: EVQLVESGGGVVQPGRSLRLSCAASGFTFSSYGMHWVRQAPGKGLEWVAIIWYDGSNKYYADSVKGRFTISRDNSKNTLYLQMNSLRAEDTAVYYCARLWFGDLDAFDIWGQGTMVTVSS VL: EIVLTQSPATLSLSPGERAILSCRAGQSVSSYLVWYQQKPGQAPRLLIYDASNRATGIPARFSGSGSGTDFTLTISSLEPEDFAVYYCQQRSSWPPVYTFGQGTKLEIK", "values": [
      {"measurement": "EEOC Mean BL", "setting": "baseline", "value": 35.4},
      {"measurement": "EEOC Peak BL", "setting": "baseline", "value": 88.2},
      {"measurement": "EEOC Mean post", "setting": "post treatment", "value": 14.6}
    ]}
  ]
}
